The values that follow come from US20100278801A1 (published 2010).

Test [1] deals with 120-G564S/320.1. Kind of test: biotin-ligand binding.
In test [2] the target is 120-G564S/320.1. In words: Eu-ligand binding.
Test [3] addresses HFD300.1 (HFD300-132K) Wild Type. In words: Eu-ligand saturation binding.
For test [4], the target named is HFD300.1. Kind of test: 125I-ligand binding.

B1: HB-EGF-biotin (ligand)
chain: DLQEADLDLLRVTLSSKPQALATPNKEEHGKRKKKGKGLGKKRDPCLRKYKDFCIHGECKYVKELRAPSCICHPGYHGERCHGLSL
A word on the Kd: it is a measure of binding affinity in units of concentration. High values mean a looser complex, low ones a tighter complex. In the case of B1, the dissociation constant (Kd) in test [1] was determined as 0.211 nM.

B2: EU-EGF (ligand)
chain: NSDSECPLSHDGYCLHDGVCMYIEALDKYACNCVVGYIGERCQYRDLKWWELR
B2 returned a Kd in test [2] of 0.877 nM.

B3: Eu-NRG1β1 (ligand)
chain: SHLVKCAEKEKTFCVNGGECFMVKDLSNPSRYLCKCPNEFTGDRCQNYVMASFYKHLGIEFMEAE
With B3, in test [3], the Kd turned out to be 3.11 nM.

B4: NRG1β (ligand)
chain: SHLVKCAEKEKTFCVNGGECFMVKDLSNPSRYLCKCPNEFTGDRCQNYVMASFYKHLGIEFMEAE
Molecule B4 gave a Kd in test [4] of 12.1 nM.
